# Results taken from the domain aggregation screens of Martell et al. (2025).
# Test: soluble fraction after stress (log2 fold change); higher = more stays soluble; pooled small domains, quantitative proteomics
# Details: stress: pH 4
# Outline: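 With high-throughput quantitative proteomics, pooled custom libraries of small protein domains were measured after pH 4 stress. Each domain's soluble amount after the stress gives a fold change taken as aggregation propensity. Higher log2 values mean more of the domain stayed soluble.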
row,Sequence,soluble fraction (log2)
1,HMRMTLKNKVEDIVHILRKDKQTSLSAILGDNTDRIQTIVVFLAILELVKQHLIKTDQNANFGDINLFPED,0.134
2,HMRNLFWTEAQNAQNELNAMRINALTQSIRRIEPNFRGIPSLRDPNRPIPNEEVRDYENYLNRILP,0.126
3,HMRNMRKLWIARINAAARMNDISYSKLMHGLKLANVEINRKMLSEMAIDDPKSFTALVETAKKALNG,0.303
4,HMRNPLYAQVADYVMQQIAAGTYRPHQAIPTEWQLAKKLEVSQGTVRKGLDELVFKQILYRQQGVGTFVAD,0.0353
5,HMRPAAELGLPHAPKHFIQYLTEDDRPQVLKDVDYEGGMGVSIGRLREDSIFDWKFVGLAHNTL,0.0686
6,HMRPADTAAMLKYLSSGAVKGIGGALAGRIIEAFGDESIKVIEEDPARLATVKGITLKKAKEISEEMQRVN,0.0199
7,HMRPEFVVALSGADLGKLHRLYELGEVLSREDDAEGVTHAVLRVPDKHEHAFHAEFPQARPM,-0.19
8,HMRPIDEVFGFFSRPENLTVITPSNLHFNILTPRPLEMKQGAVIDYTIKIFKVPIHWRTLITTYDPPFKFV,-0.399
9,HMRPILTLEEAKAKALAHAGLKADQVTFTEAKLDWDDGKQVYDIEFYTADFKEYDYEIDAKTGEVLEVDY,0.0375
10,HMRPKAIFVDVDDTLVRSVGQTRIPMPAVIAHIRRLHDAGHQLYLWSSGGADYARASAEELGIGQYFQAFL,-0.32
11,HMRPRWTEQEVERAKAIKMIYPNAYRLESSDVFVQVWSKEEILLAHVEVDMFPSLRPGQPVELDEIIG,-0.114
12,HMRPTAWDQISDWLDRHGSIANADVVRIAGLDTLKASKLLTTWREQGLLEPLPGRGKRNMAYVRAI,0.12
13,HMRPTVNETQIREVFRSILGREVDPEGLRHYLGQAAKGWSIDQIRADVNNSQEAHQRRAELARQAEELK,-0.217
14,HMRQDEKTLLYWIAGHLKREGRQITERSARHLVEQVGTDMENLSREMEKLIAYTMGRTEITGQDIDDI,-1.21
15,HMRQEIIEDSRKLLEESLKRYDLTYQEFIDTLKSKNMNVESTLINIIKNQSSLDLVLRNLGLIAP,-0.869
16,HMRQISDPTALASMVDKVIEDNPSAVADYRRGESKALGFLIGRVMQSSGGKANPKMIRGLLVKNLES,0.371
17,HMRQMIIIMQKQAAASSVAAVVEFIRSKGLREHISPGAERTIIGAVGDERVFLPQELESLPQVERAIRVL,-0.85
18,HMRQPAAVEYSTFLDWVHASQVERVVFEGDTIRGVRVTGEGFVTYSPETDNTALIGELKKSRVQISATAP,0.311
19,HMRQQAFWALVPEERDVLDETGAPLFRIGPTAWALVIEDRGEVFVVRDEDGRVGYLHEVDGVTR,-1.94
20,HMRQQLAEILQKAVDNLPEAQRLVWLLRDKSDMTFKEIAEDLQLTEANVRVLLHRARLKLLAVINQYEE,-0.115
21,HMRQYKEMPYRLFLIHLGKGLVDEVELSDKAKLTGKLKNGKIFITDNPRTENFKEQLLLHDVKVKEG,-0.133
22,HMRQYTPEQLETAVLVLEEVRQGRRLDRALRSHPMPDGRLIAKHVLVAAYRKLVAEGTWKEDPEFLSRIRM,0.116
23,HMRRADRLLQLIQILRRHRRPVTGDVMARELEVSLRTVYRDIATLTIEGVPIRGEAGVGYVLGEGY,0.211
24,HMRRDEDLAHGRELLEKELRKQGLEVSENLKQDKLLEGAKRLGFLEAEDLVVAVGSGKVSAGMAVGRIIG,-0.411
25,HMRREKVLIKLAENLASKVLRTKKSIELEPMTPYERKVIHTTIENISGVKSWSEGENLQRHLIVALDE,0.188

row,Sequence,soluble fraction (log2)
1,HMRRGPLTPDDFVLDMRVVHPRYGVGRIVALSGSGESRKATVDFGGSIGRMKFVLSQSPLKP,≥ 0.43
2,HMRRHLLEMNDAIGRLGRLISEDPADRDVAEVIWAALRGMVMGQMIMNEPIDWQRERRTLVEMAIGR,0.119
3,HMRRIADVVPEQLTREEAEELLETLAEQGEIHEEQALLARYILEQSLQGVAPEVEPLIRAKLLAGILMVY,-1.67
4,HMRRKDIEFTNTMLEELYRHNSKWYDAVVRAYALEIPQKQIAEEMGIRLEAFQSMLFRAKKWIKTKYEADY,-0.432
5,HMRRNLSGEDTIVNRMAQWQYTQEQKNELHKMMDAGMPQEDILSVFYPEIKAEEMHRFLLAFQTAHNSG,-0.0487
6,HMRRPRGVFNLVPRGFKRFGFITPDGGGEDMFAHLENVRAGHVVEDRNAVEYGIGRGPDGRDQAVDIVPVP,-0.112
7,HMRRPTYPTVTTEAGMVVEDRSSGFVGDIVRWSFEGVTLRDRQQQLRHFTWKPGGFLINGTPVTLKRPE,0.0911
8,HMRRRVIGTLVMGDMSTDFKVLADGHTHRVLAAAISFHKAKPGDEVVILVPKSAPSKWAAVEHVMK,≥ 0.43
9,HMRSAKLPYSEFLKLVDTDKVNDVSIVGRTISGHLDDGSKFSTYTPPNDPNIIEKLSSHNVIINSAPE,0.337
10,HMRSASFDIMSQKQSDATLGYERVYDTETNEVYKAYNGFTDDYDGERYKSISDNMYTKGISGYIEK,-0.151
11,HMRSDSEIKEDVLDELMWQPNIDETQIGVIVEKGVVTLTGFVDAYAKKTAALDAVKNVKGVKAVANDIEV,-0.0968
12,HMRSFGRLRRRDSGRWEAAYVGPDARLYRAPATFEAKDDAIAWLSAERRMIELDTWIKPHDRASR,-0.000443
13,HMRSGFAFSEEEIKHLDNIVSPLLIKGQSIHHISIFHKDEVMMSERTLYSYVNNGLFSARNIDMPRTVRMR,0.218
14,HMRSISVEMDGKEYLIPTVSENGKVLSDDDAVKQFKKTGKHLDVFDSPEDATAYARQLHEDQESFYA,0.22
15,HMRSKTDLVYEEIKKLILRGELSSDTPISENHLARRFEISRTPIREALKRLHIEGFVRIIPNHGVFVR,-0.304
16,HMRSLAVGNVVSEEGKPSYLLLDSKRTMLFSENSIPSLYLEDGRRVIVNYTLLDEDYQGYDFRIHVNDIDT,0.22
17,HMRSNADALIGRTARVSQTIVENGFGRVALDGDDWKAQAADGSRIEEGQNVIVKDRDSIILTVEKE,0.256
18,HMRSNIYTEEKLWTVLQDFFQENRYLTISLMRMKFGLSRHMAQKWIDHFIAKGLLVKDGTPRSPIYFLND,-0.538
19,HMRSNQKVSQIAISQVLPGMVTAKNVYSRNDQLILNRETTLDSTKIAKIMFYAIESIYVYEPE,-0.6
20,HMRSPVDALSNRELQVLQMVGRGLSSRQVAEALHLSVKTVEAHRQRIKGKLGLRTGAQLVQFAANWVTG,-0.182
21,HMRSREGVRWIIRERIMEELQERHHMDDGELLEMIDRSIGEMGQEIFLPLKERIWLRGSLFDSFR,-1.44
22,HMRSWRDQRVDDLLAAVSELGMTMSRAAAGDLLDQRVEYVANQMRVTPATARKYLTEETLAGMAREIVFG,-0.83
23,HMRTAFPQLTERELEILDLIAAGRNNAQIASALYLAPKTVRNNVSNILAKLQATDRAEAIIRARDAGLGG,0.273
24,HMRTAKEVFYKELKGYMQNGDELSVKKIYSLFPEINPKTVSWRLHELVQHGKIHRTGHGYYALTQ,0.0797
25,HMRTDTIINSGGLKINPEEVENEILKSLGDNNFFIDKIKNDKFGEEIILIALKKIKINLLIESLNLI,-0.286

row,Sequence,soluble fraction (log2)
1,HMRTFFEIEQLKAYVGEEIQVKFEADSHKQTVLGKLISISEDFIEIENSKKGNLKISLDNYLTSKLIY,-0.468
2,HMRTGSSVLVGLVAPVRLGATGAPKVFADGALWEARSAVPLNDGQLVEITGTDGLTVLVKPSA,0.138
3,HMRTIVSELNDIKGISDASAKKLLIRYGSFEAVREAVMKHEEEFELDMGKRITGALTRYFYEE,0.223
4,HMRTKLEEAVEWLQEQLNDGPVLSKELESEAKAADILPGTLRRAGEALGVVKQKQGGRGGWTWSLPR,≥ 0.43
5,HMRTLGADLRALRKARGLTLAGMADNMGKSVGWMSQIERDISEPSISDLRALAKLLDVSVSSLFR,-0.557
6,HMRTQEELVAEVREQMEAMGTIATLYVELYESSEERLVGGVIFEDERHYRFVYEDGLLHYEEEK,-1
7,HMRTRSDVKRAAIIQAAKDAFQEYGVNATSMDKLAEMASVSKRTVYNHFSAKEELVMHIVKE,0.174
8,HMRTVPEALLGRAYETAETAIVLEGLEAKRTDVFHPTIGNGTVIRLEPASGSQVSAGGVIEIFVSKGTETI,-1.31
9,HMRVDYKTQLQELLQRQGAAAPQYRLLVEEGPAHLRRFQVGVYFQGRLLGTGWGRNKKEAEQEAARQALMP,0.186
10,HMRVEEVGYGEFLQMAEERDLAEVQVTDTEIIFSDKDTPPNYYKTGRMDDPFLVDRLYSAGIRDFGE,-1.65
11,HMRVESVGDRIRRLRKSLGLTQVKLAQMLGIKAPSVVQWESDKTNLSGENLLNAAKLFGVTPDYILYGG,0.233
12,HMRVLEYTADGSRLDVLLSQDGVLSRSRAAELIKGGAVTVDGRAEGKPSAKPAPGALVRVEVPE,≥ 0.43
13,HMRVVGRNHYDDADLAHIRSVIQLEARPLNVSRIARTLANEYPKHTYWSYLSFLQKNLRDRPDLF,0.419
14,HMRVVPEILERAVAVFEALGVDRLPSSTLADRLGYDSPEALADVLRPLGVRPKKYRDGKSTARGYLAADLG,-0.284
15,HMRYEESVTLGERLLNQSLVALKADNIDDALWERFLREEAGEKSRQEILSDIGLGKRLPVVVAKRLLAPS,-0.982
16,HMRYPLPYAFARSQQLLLEETDDGRYTLWMSSHPARSAVGEVSRKYGVQTFEVLADGPLAQRISAAYAQ,0.0965
17,HMRYTAAEMAKKLDISRSYLYYLKEAGVVEIEKNENGKPIWTESVYNQLFEYIKKNHRTEEADNTQ,-0.61
18,HMSAAIGEAVIATDEINVRSGPGLSHEIVSVVSRNESYPILEERGDWVQIQLNGGQKGWVVSWLIKKKS,-0.268
19,HMSAAMTESVLDGIPGLGATRKAALLAHFGSVRKLRAATSEQVREVPGIGPRLAETILATLHEP,0.0277
20,HMSAATGIINTDNVNIRSGPATTYDAVGRLNQGSSVEILSSRNDWYQIQANSLKGWVRNDLLNVQK,0.0683
21,HMSADDLVSRTQAIVAELKDLEGPLLPILHSVQEAFGHVPDEVKPVIAEALNLSRAEVHGVVSFYHDFRAH,-0.571
22,HMSADIGAEKAKTIALNHAGVSASNAVFLHAKLDYDDGRRTYEVEFYSGSKEYDYEIDAATGEILSYDFD,0.327
23,HMSAEAYLSFVKKENLRAAVVNYENNKEWLKDVPHERLLDLAVFAKVDMGEPGMSMKFNNWLLSR,-1.12
24,HMSAEKDGEWLTLTEAAKHLQVSPHVIRRLIQTGALPAEQVMRGAPHQIRAADLDTDRVKTMIAR,0.228
25,HMSAEKPVKSELFYKSMLNSFEQAVRFMIANGILEDFKSRIVAINNETNHQNWFNKQEFNAIIERF,-0.032
